Source: patent US20230365956A1

Columns and labels:
[1] = target: SARS-CoV-2 RBD, wild type (Sino Biological) (SARS-CoV-2) (UniProt P0DTC2); experiment: BLI, avidity format: response at highest analyte concentration
[2] = target: SARS-CoV-2 RBD, wild type (Sino Biological) (SARS-CoV-2) (UniProt P0DTC2); experiment: BLI, affinity format: binder on AHC sensor, RBD in solution
[3] = target: SARS-CoV-2 RBD, wild type (Sino Biological) (SARS-CoV-2) (UniProt P0DTC2); experiment: BLI, affinity format: response at highest analyte concentration
[4] = target: SARS-CoV-2 RBD, wild type (Sino Biological) (SARS-CoV-2) (UniProt P0DTC2); experiment: BLI, avidity format: biotinylated RBD on SA sensor, binder in solution

For Cilgavimab (antibody), the Response [1] was 0.64 nm shift, the Kd [2] was 3.98 nM and the koff [2] was 0.00172 s⁻¹. It also gave a kon [2] of 434000 M⁻¹ s⁻¹, a Response [3] of 0.397 nm shift and a Kd [4] of 0.21 nM. The koff [4] was 6.53e-05 s⁻¹ and the kon [4] was 312000 M⁻¹ s⁻¹.
